The source of these data is patent US12679878B2, “CRF2 receptor agonists and their use in therapy” (SANOFI, priority 2020, dated 2026).

Starred links: 1 amine or outer side, 2 acyl side, 3 side chain; linkers in the order of their positions; H or OH if unused. Non-standard residues stand in square brackets, D forms with d. Groups on a side chain read outwards from the residue. No end group written: not given here. *: point of attachment. γGlu = O=C(O)[C@H](CCC(=O)[*:2])N[*:1]; Palmitoyl = CCCCCCCCCCCCCCCC(=O)*; Aib = CC(C)(N)C(=O)O

What all share (assay): cell-based or functional assay
For experiment [1], the target named is T1, CRF1R receptor (anti-target) (UniProt P34998 24-415, limits assumed).
T1 sequence (looked up): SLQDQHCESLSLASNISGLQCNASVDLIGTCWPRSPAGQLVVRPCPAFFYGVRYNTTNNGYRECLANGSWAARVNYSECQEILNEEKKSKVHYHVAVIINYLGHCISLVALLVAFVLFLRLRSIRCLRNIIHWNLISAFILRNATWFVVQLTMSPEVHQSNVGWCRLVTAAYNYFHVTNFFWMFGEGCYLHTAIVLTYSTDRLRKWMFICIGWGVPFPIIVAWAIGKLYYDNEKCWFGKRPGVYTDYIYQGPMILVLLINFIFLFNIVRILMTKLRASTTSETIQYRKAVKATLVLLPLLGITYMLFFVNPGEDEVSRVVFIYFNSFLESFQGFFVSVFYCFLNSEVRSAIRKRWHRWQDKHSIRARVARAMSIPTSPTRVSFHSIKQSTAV

Experiment [2] deals with human corticotropin-releasing factor 2α (CRF2α receptor) (human), Q13324.
Experiment [3] deals with human corticotropin-releasing factor 2α receptor (CRF2α receptor) (human), Q13324.

B1: peptide of SEQ ID NO: 212 (peptide)
peptide: IVLSLD[dV]PIKLK([γGlu-Palmitoyl])QILLKQERQKKQREQAEKNKQILEQV-NH2
modifications: N-terminus assumed
SMILES: CCCCCCCCCCCCCCCC(=O)N[C@@H](CCC(=O)NCCCC[C@H](NC(=O)[C@H](CC(C)C)NC(=O)[C@H](CCCCN)NC(=O)[C@@H](NC(=O)[C@@H]1CCCN1C(=O)[C@H](NC(=O)[C@H](CC(=O)O)NC(=O)[C@H](CC(C)C)NC(=O)[C@H](CO)NC(=O)[C@H](CC(C)C)NC(=O)[C@@H](NC(=O)[C@@H](N)[C@@H](C)CC)C(C)C)C(C)C)[C@@H](C)CC)C(=O)N[C@@H](CCC(N)=O)C(=O)N[C@H](C(=O)N[C@@H](CC(C)C)C(=O)N[C@@H](CC(C)C)C(=O)N[C@@H](CCCCN)C(=O)N[C@@H](CCC(N)=O)C(=O)N[C@@H](CCC(=O)O)C(=O)N[C@@H](CCCNC(=N)N)C(=O)N[C@@H](CCC(N)=O)C(=O)N[C@@H](CCCCN)C(=O)N[C@@H](CCCCN)C(=O)N[C@@H](CCC(N)=O)C(=O)N[C@@H](CCCNC(=N)N)C(=O)N[C@@H](CCC(=O)O)C(=O)N[C@@H](CCC(N)=O)C(=O)N[C@@H](C)C(=O)N[C@@H](CCC(=O)O)C(=O)N[C@@H](CCCCN)C(=O)N[C@@H](CC(N)=O)C(=O)N[C@@H](CCCCN)C(=O)N[C@@H](CCC(N)=O)C(=O)N[C@H](C(=O)N[C@@H](CC(C)C)C(=O)N[C@@H](CCC(=O)O)C(=O)N[C@@H](CCC(N)=O)C(=O)N[C@H](C(N)=O)C(C)C)[C@@H](C)CC)[C@@H](C)CC)C(=O)O
As to B1, in experiment [1], the “CRF1/CRF2 ratio (of EC50)” value was 1 and the “CRF1 EC50 (cAMP, HTRF)” value was determined as 0.9 nM. Further, the EC50 [nM], 0% HSA (cAMP, HTRF) in experiment [2] was determined as 1.23 nM. For the same molecule, the CRF2 EC50 (cAMP, HTRF) in experiment [3] was 1.23 nM.

B2: peptide of SEQ ID NO: 214 (peptide)
peptide: IVLSLD[dV]PIKLK([γGlu-Palmitoyl])QILLKQERQKKQRQQAEKNKQILAQV-NH2
modifications: N-terminus assumed
SMILES: CCCCCCCCCCCCCCCC(=O)N[C@@H](CCC(=O)NCCCC[C@H](NC(=O)[C@H](CC(C)C)NC(=O)[C@H](CCCCN)NC(=O)[C@@H](NC(=O)[C@@H]1CCCN1C(=O)[C@H](NC(=O)[C@H](CC(=O)O)NC(=O)[C@H](CC(C)C)NC(=O)[C@H](CO)NC(=O)[C@H](CC(C)C)NC(=O)[C@@H](NC(=O)[C@@H](N)[C@@H](C)CC)C(C)C)C(C)C)[C@@H](C)CC)C(=O)N[C@@H](CCC(N)=O)C(=O)N[C@H](C(=O)N[C@@H](CC(C)C)C(=O)N[C@@H](CC(C)C)C(=O)N[C@@H](CCCCN)C(=O)N[C@@H](CCC(N)=O)C(=O)N[C@@H](CCC(=O)O)C(=O)N[C@@H](CCCNC(=N)N)C(=O)N[C@@H](CCC(N)=O)C(=O)N[C@@H](CCCCN)C(=O)N[C@@H](CCCCN)C(=O)N[C@@H](CCC(N)=O)C(=O)N[C@@H](CCCNC(=N)N)C(=O)N[C@@H](CCC(N)=O)C(=O)N[C@@H](CCC(N)=O)C(=O)N[C@@H](C)C(=O)N[C@@H](CCC(=O)O)C(=O)N[C@@H](CCCCN)C(=O)N[C@@H](CC(N)=O)C(=O)N[C@@H](CCCCN)C(=O)N[C@@H](CCC(N)=O)C(=O)N[C@H](C(=O)N[C@@H](CC(C)C)C(=O)N[C@@H](C)C(=O)N[C@@H](CCC(N)=O)C(=O)N[C@H](C(N)=O)C(C)C)[C@@H](C)CC)[C@@H](C)CC)C(=O)O
With B2, in experiment [1], the “CRF1/CRF2 ratio (of EC50)” value was determined as 1 and the “CRF1 EC50 (cAMP, HTRF)” value was 4.27 nM. Also, in experiment [2], the EC50 [nM], 0% HSA (cAMP, HTRF) was 4.15 nM. For the same molecule, the CRF2 EC50 (cAMP, HTRF) in experiment [3] was determined as 4.15 nM.

B3: peptide of SEQ ID NO: 209 (peptide)
peptide: IVLSLD[dV]PIKLK([γGlu-Palmitoyl])QILLKQERQKK[Aib]RQKAEKNKQILAQV-NH2
modifications: N-terminus assumed
SMILES: CCCCCCCCCCCCCCCC(=O)N[C@@H](CCC(=O)NCCCC[C@H](NC(=O)[C@H](CC(C)C)NC(=O)[C@H](CCCCN)NC(=O)[C@@H](NC(=O)[C@@H]1CCCN1C(=O)[C@H](NC(=O)[C@H](CC(=O)O)NC(=O)[C@H](CC(C)C)NC(=O)[C@H](CO)NC(=O)[C@H](CC(C)C)NC(=O)[C@@H](NC(=O)[C@@H](N)[C@@H](C)CC)C(C)C)C(C)C)[C@@H](C)CC)C(=O)N[C@@H](CCC(N)=O)C(=O)N[C@H](C(=O)N[C@@H](CC(C)C)C(=O)N[C@@H](CC(C)C)C(=O)N[C@@H](CCCCN)C(=O)N[C@@H](CCC(N)=O)C(=O)N[C@@H](CCC(=O)O)C(=O)N[C@@H](CCCNC(=N)N)C(=O)N[C@@H](CCC(N)=O)C(=O)N[C@@H](CCCCN)C(=O)N[C@@H](CCCCN)C(=O)NC(C)(C)C(=O)N[C@@H](CCCNC(=N)N)C(=O)N[C@@H](CCC(N)=O)C(=O)N[C@@H](CCCCN)C(=O)N[C@@H](C)C(=O)N[C@@H](CCC(=O)O)C(=O)N[C@@H](CCCCN)C(=O)N[C@@H](CC(N)=O)C(=O)N[C@@H](CCCCN)C(=O)N[C@@H](CCC(N)=O)C(=O)N[C@H](C(=O)N[C@@H](CC(C)C)C(=O)N[C@@H](C)C(=O)N[C@@H](CCC(N)=O)C(=O)N[C@H](C(N)=O)C(C)C)[C@@H](C)CC)[C@@H](C)CC)C(=O)O
On to B3, for which, in experiment [1], the “CRF1/CRF2 ratio (of EC50)” value is 3 and the “CRF1 EC50 (cAMP, HTRF)” value is 21.7 nM. The molecule further displayed an EC50 [nM], 0% HSA (cAMP, HTRF) in experiment [2] of 8.62 nM. In addition, the CRF2 EC50 (cAMP, HTRF) in experiment [3] was 8.62 nM.

B4: peptide of SEQ ID NO: 218 (peptide)
peptide: IVLSLD[dV]PIGLK([γGlu-Palmitoyl])QILLKQERQKK[Aib]REQAEKNKRILERV-NH2
modifications: N-terminus assumed
SMILES: CCCCCCCCCCCCCCCC(=O)N[C@@H](CCC(=O)NCCCC[C@H](NC(=O)[C@H](CC(C)C)NC(=O)CNC(=O)[C@@H](NC(=O)[C@@H]1CCCN1C(=O)[C@H](NC(=O)[C@H](CC(=O)O)NC(=O)[C@H](CC(C)C)NC(=O)[C@H](CO)NC(=O)[C@H](CC(C)C)NC(=O)[C@@H](NC(=O)[C@@H](N)[C@@H](C)CC)C(C)C)C(C)C)[C@@H](C)CC)C(=O)N[C@@H](CCC(N)=O)C(=O)N[C@H](C(=O)N[C@@H](CC(C)C)C(=O)N[C@@H](CC(C)C)C(=O)N[C@@H](CCCCN)C(=O)N[C@@H](CCC(N)=O)C(=O)N[C@@H](CCC(=O)O)C(=O)N[C@@H](CCCNC(=N)N)C(=O)N[C@@H](CCC(N)=O)C(=O)N[C@@H](CCCCN)C(=O)N[C@@H](CCCCN)C(=O)NC(C)(C)C(=O)N[C@@H](CCCNC(=N)N)C(=O)N[C@@H](CCC(=O)O)C(=O)N[C@@H](CCC(N)=O)C(=O)N[C@@H](C)C(=O)N[C@@H](CCC(=O)O)C(=O)N[C@@H](CCCCN)C(=O)N[C@@H](CC(N)=O)C(=O)N[C@@H](CCCCN)C(=O)N[C@@H](CCCNC(=N)N)C(=O)N[C@H](C(=O)N[C@@H](CC(C)C)C(=O)N[C@@H](CCC(=O)O)C(=O)N[C@@H](CCCNC(=N)N)C(=O)N[C@H](C(N)=O)C(C)C)[C@@H](C)CC)[C@@H](C)CC)C(=O)O
For the molecule B4, in experiment [1], the “CRF1/CRF2 ratio (of EC50)” value came to 4 and the “CRF1 EC50 (cAMP, HTRF)” value stood at 6.97 nM. In experiment [2], this molecule displayed an EC50 [nM], 0% HSA (cAMP, HTRF) of 1.58 nM. In experiment [3], this molecule yielded a CRF2 EC50 (cAMP, HTRF) of 1.58 nM.

B5: peptide of SEQ ID NO: 219 (peptide)
peptide: IVLSLD[dV]PIKLK([γGlu-Palmitoyl])QILLKQARQK[Aib]QRAQAEKNKRILERV-NH2
modifications: N-terminus assumed
SMILES: CCCCCCCCCCCCCCCC(=O)N[C@@H](CCC(=O)NCCCC[C@H](NC(=O)[C@H](CC(C)C)NC(=O)[C@H](CCCCN)NC(=O)[C@@H](NC(=O)[C@@H]1CCCN1C(=O)[C@H](NC(=O)[C@H](CC(=O)O)NC(=O)[C@H](CC(C)C)NC(=O)[C@H](CO)NC(=O)[C@H](CC(C)C)NC(=O)[C@@H](NC(=O)[C@@H](N)[C@@H](C)CC)C(C)C)C(C)C)[C@@H](C)CC)C(=O)N[C@@H](CCC(N)=O)C(=O)N[C@H](C(=O)N[C@@H](CC(C)C)C(=O)N[C@@H](CC(C)C)C(=O)N[C@@H](CCCCN)C(=O)N[C@@H](CCC(N)=O)C(=O)N[C@@H](C)C(=O)N[C@@H](CCCNC(=N)N)C(=O)N[C@@H](CCC(N)=O)C(=O)N[C@@H](CCCCN)C(=O)NC(C)(C)C(=O)N[C@@H](CCC(N)=O)C(=O)N[C@@H](CCCNC(=N)N)C(=O)N[C@@H](C)C(=O)N[C@@H](CCC(N)=O)C(=O)N[C@@H](C)C(=O)N[C@@H](CCC(=O)O)C(=O)N[C@@H](CCCCN)C(=O)N[C@@H](CC(N)=O)C(=O)N[C@@H](CCCCN)C(=O)N[C@@H](CCCNC(=N)N)C(=O)N[C@H](C(=O)N[C@@H](CC(C)C)C(=O)N[C@@H](CCC(=O)O)C(=O)N[C@@H](CCCNC(=N)N)C(=O)N[C@H](C(N)=O)C(C)C)[C@@H](C)CC)[C@@H](C)CC)C(=O)O
B5: in experiment [1], the “CRF1/CRF2 ratio (of EC50)” value turned out to be 2 and the “CRF1 EC50 (cAMP, HTRF)” value worked out at 13.5 nM. Besides, in experiment [2], the EC50 [nM], 0% HSA (cAMP, HTRF) worked out at 5.98 nM. In experiment [3], the CRF2 EC50 (cAMP, HTRF) was 5.98 nM.
